Numbered stars: 1 amine (or outer) side, 2 acyl side, 3 side chain; on linkers, the order of the positions; unused ones are H or OH. Square brackets hold non-standard residues; d marks the D form. Pro(4S-SH) = O=C([C@@H]1C[C@H](S[*:3])CN1[*:1])[*:2]; Trp(6-Cl) = N[C@@H](Cc1c[nH]c2cc(Cl)ccc12)C(=O)O; Oic = O=C(O)[C@@H]1C[C@@H]2CCCC[C@@H]2N1; Cha = N[C@@H](CC1CCCCC1)C(=O)O
T1: NCoA-1 (UniProt Q15788 257-385, limits assumed)
T1 construct: also called SRC-1
T1 sequence (looked up): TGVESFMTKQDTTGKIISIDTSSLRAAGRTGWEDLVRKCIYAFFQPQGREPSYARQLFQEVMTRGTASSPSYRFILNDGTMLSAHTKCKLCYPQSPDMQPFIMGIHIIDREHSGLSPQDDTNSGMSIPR

B1: Ex. 14 (peptide)
peptide: cyclo(FA[Trp(6-Cl)]LDWEF[dP]P)
SMILES: CC(C)C[C@@H]1NC(=O)[C@H](Cc2c[nH]c3cc(Cl)ccc23)NC(=O)[C@H](C)NC(=O)[C@H](Cc2ccccc2)NC(=O)[C@@H]2CCCN2C(=O)[C@H]2CCCN2C(=O)[C@H](Cc2ccccc2)NC(=O)[C@H](CCC(=O)O)NC(=O)[C@H](Cc2c[nH]c3ccccc23)NC(=O)[C@H](CC(=O)O)NC1=O
notes: cyclo(-P1..P8-template-)
B2: Ex. 25 (peptide)
peptide: cyclo([Cha]EWLAWEF[dP]P)
SMILES: CC(C)C[C@@H]1NC(=O)[C@H](Cc2c[nH]c3ccccc23)NC(=O)[C@H](CCC(=O)O)NC(=O)[C@H](CC2CCCCC2)NC(=O)[C@@H]2CCCN2C(=O)[C@H]2CCCN2C(=O)[C@H](Cc2ccccc2)NC(=O)[C@H](CCC(=O)O)NC(=O)[C@H](Cc2c[nH]c3ccccc23)NC(=O)[C@H](C)NC1=O
notes: cyclo(-P1..P8-template-)
B3: Ex. 1 (peptide)
peptide: cyclo(FE[Trp(6-Cl)]LAWEF[dP]P)
SMILES: CC(C)C[C@@H]1NC(=O)[C@H](Cc2c[nH]c3cc(Cl)ccc23)NC(=O)[C@H](CCC(=O)O)NC(=O)[C@H](Cc2ccccc2)NC(=O)[C@@H]2CCCN2C(=O)[C@H]2CCCN2C(=O)[C@H](Cc2ccccc2)NC(=O)[C@H](CCC(=O)O)NC(=O)[C@H](Cc2c[nH]c3ccccc23)NC(=O)[C@H](C)NC1=O
notes: cyclo(-P1..P8-template-)
B4: Ex. 5 (peptide)
peptide: cyclo(FT[Trp(6-Cl)]LAWEF[dP][Pro(4S-SH)])
SMILES: CC(C)C[C@@H]1NC(=O)[C@H](Cc2c[nH]c3cc(Cl)ccc23)NC(=O)[C@H]([C@@H](C)O)NC(=O)[C@H](Cc2ccccc2)NC(=O)[C@@H]2C[C@H](S)CN2C(=O)[C@H]2CCCN2C(=O)[C@H](Cc2ccccc2)NC(=O)[C@H](CCC(=O)O)NC(=O)[C@H](Cc2c[nH]c3ccccc23)NC(=O)[C@H](C)NC1=O
notes: cyclo(-P1..P8-template-)
B5: Ex. 3 (peptide)
peptide: cyclo(FEWLAWEW[dP][Oic])
SMILES: CC(C)C[C@@H]1NC(=O)[C@H](Cc2c[nH]c3ccccc23)NC(=O)[C@H](CCC(=O)O)NC(=O)[C@H](Cc2ccccc2)NC(=O)[C@@H]2C[C@@H]3CCCC[C@@H]3N2C(=O)[C@H]2CCCN2C(=O)[C@H](Cc2c[nH]c3ccccc23)NC(=O)[C@H](CCC(=O)O)NC(=O)[C@H](Cc2c[nH]c3ccccc23)NC(=O)[C@H](C)NC1=O
notes: cyclo(-P1..P8-template-)
B6: Ex. 26 (peptide)
peptide: cyclo([Cha]EWLAWE[Cha][dP]P)
SMILES: CC(C)C[C@@H]1NC(=O)[C@H](Cc2c[nH]c3ccccc23)NC(=O)[C@H](CCC(=O)O)NC(=O)[C@H](CC2CCCCC2)NC(=O)[C@@H]2CCCN2C(=O)[C@H]2CCCN2C(=O)[C@H](CC2CCCCC2)NC(=O)[C@H](CCC(=O)O)NC(=O)[C@H](Cc2c[nH]c3ccccc23)NC(=O)[C@H](C)NC1=O
notes: cyclo(-P1..P8-template-)
B7: Ex. 13 (peptide)
peptide: cyclo(FE[Trp(6-Cl)]LDWAF[dP]P)
SMILES: CC(C)C[C@@H]1NC(=O)[C@H](Cc2c[nH]c3cc(Cl)ccc23)NC(=O)[C@H](CCC(=O)O)NC(=O)[C@H](Cc2ccccc2)NC(=O)[C@@H]2CCCN2C(=O)[C@H]2CCCN2C(=O)[C@H](Cc2ccccc2)NC(=O)[C@H](C)NC(=O)[C@H](Cc2c[nH]c3ccccc23)NC(=O)[C@H](CC(=O)O)NC1=O
notes: cyclo(-P1..P8-template-)
B8: Ex. 18 (peptide)
peptide: cyclo(FE[Trp(6-Cl)]LDAEF[dP]P)
SMILES: CC(C)C[C@@H]1NC(=O)[C@H](Cc2c[nH]c3cc(Cl)ccc23)NC(=O)[C@H](CCC(=O)O)NC(=O)[C@H](Cc2ccccc2)NC(=O)[C@@H]2CCCN2C(=O)[C@H]2CCCN2C(=O)[C@H](Cc2ccccc2)NC(=O)[C@H](CCC(=O)O)NC(=O)[C@H](C)NC(=O)[C@H](CC(=O)O)NC1=O
notes: cyclo(-P1..P8-template-)

Target: T1, NCoA-1
Assay: competition fluorescence polarization; displacement of FluoSTAT6 from NCoA-1
Method: The mixtures were shaken thoroughly. Fluorescence polarization was measured on a SPECTRAmax M5 spectrometer (Molecular device) following 5-30 min incubation at room temperature. FluoSTAT6 was excited at 490 nm and emission polarization was detected at 525 nm. 40 intensity measurements were collected for each well, 20 at horizontal position of the dynamic polarizer, 20 at parallel position. As the fraction of FluoSTAT6 bound to NCoA-1 is correlated to the fluorescence polarization (FP), after normalization, the fraction of bound FluoSTAT6 (B) was determined, and the KD was calculated according to B=[(1+P/R+KD/R)−((1+P/R+KD/R)²−4P/R)^{0.5}]/2, wherein P is the total probe concentration, R the total protein concentration and KD the dissociation constant (M. H. Roehrl, J. Y. Wang, G. Wagner, Biochemistry 2004, 3, 16056).
To determine the Kᵢ values of potential inhibitors of the STAT6/NCoA-1 interaction (competition fluorescence polarization) the compounds (dilution series from 0 to 100 μM final concentration) dissolved in HEPES buffer (10 mM HEPES, 150 mM NaCl, 3.4 mM EDTA, 0.1% BSA) were dispensed in a black 96 well plate (Greiner) and FluoSTAT6 (200 nM final concentration) in HEPES buffer was added. The mixture was completed by a HEPES buffer solution of NCoA-1 (1 μM final concentration) and processed as described above. STAT6Y (C-terminal tyrosine extended STAT6 794-814 peptide) was used as a positive control. As the total fluorescence intensity of FluoSTAT6 remains similar for all samples, the fraction of peptide bound to NCoA-1 is correlated to the fluorescence polarization.
Following normalization data were fitted with IGORpro Software® (WaveMetrics, Lake Oswego, Oreg., USA) to a sigmoid equation to determine IC₅₀ values.

Binder | Ki [µM]
B1 | 1.4
B2 | 6
B3 | 0.7
B4 | 3.8
B5 | 6.2
B6 | 7.7
B7 | 2
B8 | 3.3

— patent US20170369523A1, “TEMPLATE-FIXED BETA-HAIRPIN PEPTIDOMIMETICS THAT ARE LIGANDS FOR G-PROTEIN-COUPLED RECEPTORS (GPCRS) AND ARE MODULATORS OF TRANSCRIPTION FACTORS AND COACTIVATORS” (POLYPHOR AG, priority 2008, published 2017)
